Measurements as given in patent US8058228B2, “Leptin peptide antagonists” (Boston Biomedical Research Institute, priority 2004, dated 2011).

Target: T1, OB-R (Homo sapiens, UniProt P48357)
T1 construct: After confirming via Western that the primary EEC and ESC and endometrial cell lines utilized herein had OB-R; endogenous in cells; host or cells: primary human EEC and ESC; Ishikawa (ECACC 9832301) and HES cell lines
T1 sequence (P48357 22-1165): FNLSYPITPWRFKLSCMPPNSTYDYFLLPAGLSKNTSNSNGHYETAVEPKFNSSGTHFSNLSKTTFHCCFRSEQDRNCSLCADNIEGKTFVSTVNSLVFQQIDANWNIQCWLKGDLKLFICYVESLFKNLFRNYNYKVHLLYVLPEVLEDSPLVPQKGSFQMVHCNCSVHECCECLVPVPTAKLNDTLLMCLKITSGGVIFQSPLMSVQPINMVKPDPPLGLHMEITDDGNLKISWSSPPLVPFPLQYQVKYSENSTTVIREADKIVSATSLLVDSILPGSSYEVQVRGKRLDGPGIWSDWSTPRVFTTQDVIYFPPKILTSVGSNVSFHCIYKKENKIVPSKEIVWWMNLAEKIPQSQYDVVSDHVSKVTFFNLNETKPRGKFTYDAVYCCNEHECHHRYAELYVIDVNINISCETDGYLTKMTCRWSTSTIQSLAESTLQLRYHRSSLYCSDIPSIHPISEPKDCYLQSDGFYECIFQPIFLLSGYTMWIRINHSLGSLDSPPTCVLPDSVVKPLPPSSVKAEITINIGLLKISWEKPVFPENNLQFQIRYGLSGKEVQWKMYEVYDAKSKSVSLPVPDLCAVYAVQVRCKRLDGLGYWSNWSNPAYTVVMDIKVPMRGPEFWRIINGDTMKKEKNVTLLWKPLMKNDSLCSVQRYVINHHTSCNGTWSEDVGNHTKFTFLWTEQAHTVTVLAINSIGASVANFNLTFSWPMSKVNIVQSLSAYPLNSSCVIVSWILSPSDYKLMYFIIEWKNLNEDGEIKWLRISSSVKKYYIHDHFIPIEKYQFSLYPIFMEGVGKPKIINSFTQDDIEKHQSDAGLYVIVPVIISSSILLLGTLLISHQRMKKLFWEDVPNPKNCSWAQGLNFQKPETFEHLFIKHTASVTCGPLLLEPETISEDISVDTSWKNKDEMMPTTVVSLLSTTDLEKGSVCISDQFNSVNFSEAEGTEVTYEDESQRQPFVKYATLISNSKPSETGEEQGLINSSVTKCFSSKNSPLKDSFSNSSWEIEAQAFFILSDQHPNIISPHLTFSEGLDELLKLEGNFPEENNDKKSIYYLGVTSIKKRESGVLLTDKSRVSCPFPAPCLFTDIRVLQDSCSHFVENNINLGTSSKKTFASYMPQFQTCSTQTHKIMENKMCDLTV
Assay: LIF levels in conditioned medium of human endometrial cells (ELISA)
Type: cell-based
Details: for effect on leptin-induced LIF levels in conditioned medium: leptin 3 nM plus inhibitor or control
Method: Primary human endometrial cells (ESC and EEC) were cultured for 5-9 days in DMEM-F12 medium containing 5% fetal bovine serum (FBS), 5 μg/ml insulin, 1% amphopthericin B, 100 μg/ml streptomycin and 100 U/ml penicillin until they were 80% confluent. Two types of endometrial epithelial cell lines, HES (originally derived from a benign proliferative endometrium) and Ishikawa (human endometrial epithelial adenocarcinoma, ECACC 9832301, Wiltshire, England) were cultured under the same conditions described above. The cells were washed twice with 100 mM phosphate saline buffer (PBS), pH 7.2 and cultured for additional 2 days in the same medium but without FBS (basal medium). Cells were washed as described before and cultured in basal medium containing leptin (0, 3, 10 or 62 nM) or IL-1β (0.6, 3 and 10 nM).
The anti-OB-R antibody (10 and 20 μg/ml) and LPA-2, a specific inhibitor of OB-R (3, 120, 300 nM or 30 μM) were used to assess whether leptin-induced effects were regulated primarily by the OB-R. Non-specific species-matched IgGs to the OB-R antibody and a scrambled version of LPA-2 (LPA-2Sc) served as negative controls (Gonzalez and Leavis, Endocrine 21: 185-195 (2003)). Inhibitors of IL-1R were used (monoclonal antibody anti-IL-1R tl and IL-1Ra) to assess whether leptin activated IL-1 induced signaling pathways or just activated similar components responsible for LIF/LIF-R expression. Treatment with the cytokine, inhibitor or the two combined was implemented for 5, 15, 30 and 60 min, and 24 and 48 h. The cells were prepared for Western blot analysis. The conditioned media was collected, lyophilized and stored at −80° C. until analysis for LIF, IL-1β and IL-1Ra by ELISA could be performed. Duplicate wells were run for each treatment and the experiments repeated at least three times with different cell preparations.
Conditioned media from cells cultured under the experimental conditions described above were used to quantify the secretion of LIF, IL-1β and IL-1Ra by ELISA (Quantikine®, R&D Systems). The experiments were replicated three times and standards, controls, and samples were assayed in duplicate. Cytokine concentrations as determined by ELISA were within the range of the standard curve and were expressed in pg/ml/mg protein. The intra- and interassay coefficients of variation were between 5-8% and 8.5-10%, respectively. The lowest detectable concentration of each cytokine by ELISA was LIF (9 pg/ml), IL-1 (0.11 pg/ml) and IL-1Ra (15.6 pg/ml). These concentrations are similar to those reported by the manufacturer. LIF-ELISA is reported by the manufacturer to have a sensitivity of less than 8 pg/ml for both natural and recombinant human LIF and 100% specificity (no significant cross-reactivity or interference with a diversity of human and mouse cytokines and growth factors was observed). The performance characteristics for human IL-1β and IL-1Ra ELISAs reported are: 100% specificity, sensitivity 0.1 pg/ml and 14 pg/ml, respectively.

effect on leptin-induced LIF levels in conditioned medium (Ishikawa cells) | LIF levels after leptin (HES cells) | LIF levels in conditioned medium after leptin (Ishikawa cells, leptin 3 nM) | LIF levels after leptin (primary EEC, 24 h, dose-dependent) | Substance
reduced LIF levels |  |  |  | SRNVIQISNDLENLRDLLHVLAFSKS [LPA-2, 26 amino acid peptide, residues 70-95 of helix III of the human leptin molecule; leptin peptide antagonist]
not different |  |  |  | VAEVLNRSDLIQRISFSLDLNNSKLH [LPA-2Sc, scrambled version of LPA-2, negative control, reference compound]
 | No response | increased the levels of LIF | increased level of LIF | leptin: human recombinant leptin (R&D Systems), OB-R ligand used as stimulus
